Experimental findings from the RNAGym collection of RNA variant scans (doi:10.1073/pnas.2313332121) are described below.

This sample holds only a part of the variants without activity.

Sequences and labels used below:
B1: TPR 5TU (parent)
chain: GGAUCUUCUCGAUCUAACAAAAAAGACAAAUCUGCCACAAAGCUUGAGAGCAUCUUCGGAUGCAGAGGCGGCAGCCUUCGGUGGCGCGAUAGCGCCAACGUUCUCAACUAUGACACGCAAAACGCGUGCUCCGUUGAAUGGAGUUUAUCAUG

Variants of B1 are the subject of this series. As to the kind of experiment: polymerase ribozyme fitness, log enrichment relative to wild type (log ratio); higher = more active; in vitro selection for triplet polymerase activity. A digest of the protocol: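 A heterodimeric triplet polymerase ribozyme had each of its subunits mutagenized by PCR into a library, which was transcribed. One round of in vitro selection, done in triplicate, annealed each library with a biotinylated primer, its partner subunit and triplets, then incubated it frozen at −7 °C before gel excision of extended constructs, streptavidin-bead capture and RT-PCR. Fitness is the logarithm of genotype enrichment relative to wild-type enrichment, based on Illumina sequencing of inputs and outputs and inverse-variance-weighted replicate averages. A base-2 logarithm is used, and genotypes were kept only with ≥10 input reads and ≥1 read per output.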
For the variant G83A C99U G143A A147U, the “polymerase ribozyme fitness (log ratio)” value is -3.6. The same measure for A12C C93G A98U: -3.05; for G84U A98G: -2.89; for C32G G65C A73G C76U A106G: no more than -4.2.

A12U A23C C54U C116G A147C U151A: the “polymerase ribozyme fitness (log ratio)” value was no more than -4.2. On to G25C A52G G83C, for which the “polymerase ribozyme fitness (log ratio)” value was -3.42. The same measure for G83U C103U: 0.2; for U61G G68A U77C C87U C93G C123U G126C U135C: no more than -4.2; for U45A G84U C108G: no more than -4.2. For A39U G100A A110G A150U, the “polymerase ribozyme fitness (log ratio)” value was no more than -4.2. The same measure for C5G U82G G86U A121G: -2.13; for G59U G88U A121U U127A U134G: no more than -4.2. The figure for U4G C5A U55G is -0.269; for A16G G48A A122U C149U it is -3.58.

In the case of A12C C87U C114U U139G, the “polymerase ribozyme fitness (log ratio)” value is -3.08. C8U G92U: the “polymerase ribozyme fitness (log ratio)” value was -3.35.

With G11U C93U A119C C149U, the “polymerase ribozyme fitness (log ratio)” value was -3.06. For the variant G59C G68C G70U G140U, the “polymerase ribozyme fitness (log ratio)” value is no more than -4.2. The figure for U6A A24C G48A C93U U127G U144A is no more than -4.2; for C8G A24G C54U G68A G71A A91U C95A it is no more than -4.2; for U6C C93G it is -3.54. Consider U4A A20G C35A U55G C72U C99U A120U U146A, for which the “polymerase ribozyme fitness (log ratio)” value is no more than -4.2. As for A41C G42C C43G G84U C95U C96G, the “polymerase ribozyme fitness (log ratio)” value was no more than -4.2.

In the case of C35U G92U, the “polymerase ribozyme fitness (log ratio)” value is -0.627. The figure for A3U A21C C69A C76A G86A A89G A122G is no more than -4.2. For the variant G42A U53A, the “polymerase ribozyme fitness (log ratio)” value was no more than -4.2.

G48U C96A: the “polymerase ribozyme fitness (log ratio)” value was -0.685.

C14A A17G A22U A24C A41C G70A U78A U90C C129U: the “polymerase ribozyme fitness (log ratio)” value is no more than -4.2.

Consider A30G G50C C51A G84A C87G G100U A121G, for which the “polymerase ribozyme fitness (log ratio)” value is no more than -4.2.

In the case of A41U C96A C105A G117U U144G, the “polymerase ribozyme fitness (log ratio)” value was no more than -4.2. The figure for A24G A52G U55A C85U A150C is no more than -4.2.

Take U9C G25C U56A C93U C99G: the “polymerase ribozyme fitness (log ratio)” value was no more than -4.2. Take A49C G68C G94U A97U C114G G126A U127G: the “polymerase ribozyme fitness (log ratio)” value was no more than -4.2.

On to A41G U104G C125G, for which the “polymerase ribozyme fitness (log ratio)” value is -1.21. In the case of A20C U55A G67C G124A A137U, the “polymerase ribozyme fitness (log ratio)” value is no more than -4.2. The same measure for A23G C93U U101A G140U: -3.86; for A17U C36A C54U G74C A120U U144A: no more than -4.2. The figure for G50A C51A C114U U134C G136A U151G is no more than -4.2; for A49G C93G U102G A106G it is no more than -4.2.

C38U U56A A60U C95A: the “polymerase ribozyme fitness (log ratio)” value was -1.13. The figure for U9C C38U C51U A52G G74C C85G G143C U145A is no more than -4.2; for G11A C43U C54U A106U C108G G112A it is no more than -4.2; for C93U C105U it is -2.55.

A49U U56G G81A G94A U146G: the “polymerase ribozyme fitness (log ratio)” value was no more than -4.2. Take A73G C96G C105A U139A: the “polymerase ribozyme fitness (log ratio)” value is no more than -4.2. The figure for C14A C99G is -1.66.

Turning to C32A A41C G94U C103A C118U, the “polymerase ribozyme fitness (log ratio)” value was no more than -4.2. As to C14G A91U A97G, the “polymerase ribozyme fitness (log ratio)” value was -3.96. Consider A22C C35A U55A C57U G86U A119U, for which the “polymerase ribozyme fitness (log ratio)” value was no more than -4.2.

Take C114U A119U: the “polymerase ribozyme fitness (log ratio)” value is -1.73. The same measure for U82G U101G: 0.433. Regarding A12G A22C A66U C69U G92A, the “polymerase ribozyme fitness (log ratio)” value was no more than -4.2. For the variant C10U A29G G59A G81A A97G, the “polymerase ribozyme fitness (log ratio)” value was no more than -4.2. The same measure for C87A A147G: no more than -4.2; for U44A G80A A138U A150G: no more than -4.2.

As to G67C C76U C96U C149U, the “polymerase ribozyme fitness (log ratio)” value was no more than -4.2.

Take A37G A47C G100U G143A: the “polymerase ribozyme fitness (log ratio)” value was no more than -4.2. The figure for C87A U90C G117C is -3.77; for A47G G58C G65A G141U it is -1.24; for A20G A37G A106G A138C it is -3.84.

Regarding C10G A30C G92U A107G U148C A150U, the “polymerase ribozyme fitness (log ratio)” value is no more than -4.2. The figure for A49G G84U U145G is -3.09. The figure for C14G C131U is -1.27; for A40G G59A C93A it is -4.07.

Regarding A17C A40C G83C U109G, the “polymerase ribozyme fitness (log ratio)” value was -3.6. As to U9G U33G G59A G140U, the “polymerase ribozyme fitness (log ratio)” value is no more than -4.2. The figure for A22C A66C C103G G126C is no more than -4.2; for G59A G140C U144G it is -3.79. The figure for C93G A107G is no more than -4.2; for A91G G94A it is -3.47; for A24U C51U G59C G83A G84U C131U it is -3.74. Take G50U C63U C85A A110G: the “polymerase ribozyme fitness (log ratio)” value was -4.19. For the variant G42C C96U C99U, the “polymerase ribozyme fitness (log ratio)” value is no more than -4.2. The figure for G86U U90G A98U G143C is no more than -4.2; for C27A U82G C87G G94A U135A it is no more than -4.2; for C51U G83U it is -0.266. The figure for U4A G11A A26C A60G G84U G126U C149G is no more than -4.2. The same measure for G59A: -0.0739; for C96U A119C G141A: 0.872. In the case of U56A C125U A142C, the “polymerase ribozyme fitness (log ratio)” value is -3.74. The figure for A39G C57G C105G A147U is -3.4; for C14A A29C C96G A150U it is no more than -4.2; for A16G A41G U53G A73U G88A C125U G133U it is no more than -4.2.
